Patent US5861377

How the values were obtained:
[1] = target: trypsin (inhibition assay used during purification)
[2] = target: chymotrypsin (inhibition assay used during purification)

With hirustasin (Hirudo antistasin) the specific activity (SA) of trypsin inhibition, Mono S pool [1] was 2.7 IU/mg and the specific activity (SA) of chymotrypsin inhibition, Mono S pool [2] was 0.15 IU/mg.
